These results are taken from article PMC5587847, “IPA1 functions as a downstream transcription factor repressed by D53 in strigolactone signaling in rice” (Cell Research, 2017).

The assay addresses T1, HisTrx-D53 (rice (Oryza sativa L.), UniProt Q2RBP2 1-1131).
T1 construct: DWARF 53 (D53), rice; full-length CDS in an E. coli expression vector (pDEST51); also called HisTrx-D53 fusion protein; source: E. coli, purified
T1 sequence (looked up): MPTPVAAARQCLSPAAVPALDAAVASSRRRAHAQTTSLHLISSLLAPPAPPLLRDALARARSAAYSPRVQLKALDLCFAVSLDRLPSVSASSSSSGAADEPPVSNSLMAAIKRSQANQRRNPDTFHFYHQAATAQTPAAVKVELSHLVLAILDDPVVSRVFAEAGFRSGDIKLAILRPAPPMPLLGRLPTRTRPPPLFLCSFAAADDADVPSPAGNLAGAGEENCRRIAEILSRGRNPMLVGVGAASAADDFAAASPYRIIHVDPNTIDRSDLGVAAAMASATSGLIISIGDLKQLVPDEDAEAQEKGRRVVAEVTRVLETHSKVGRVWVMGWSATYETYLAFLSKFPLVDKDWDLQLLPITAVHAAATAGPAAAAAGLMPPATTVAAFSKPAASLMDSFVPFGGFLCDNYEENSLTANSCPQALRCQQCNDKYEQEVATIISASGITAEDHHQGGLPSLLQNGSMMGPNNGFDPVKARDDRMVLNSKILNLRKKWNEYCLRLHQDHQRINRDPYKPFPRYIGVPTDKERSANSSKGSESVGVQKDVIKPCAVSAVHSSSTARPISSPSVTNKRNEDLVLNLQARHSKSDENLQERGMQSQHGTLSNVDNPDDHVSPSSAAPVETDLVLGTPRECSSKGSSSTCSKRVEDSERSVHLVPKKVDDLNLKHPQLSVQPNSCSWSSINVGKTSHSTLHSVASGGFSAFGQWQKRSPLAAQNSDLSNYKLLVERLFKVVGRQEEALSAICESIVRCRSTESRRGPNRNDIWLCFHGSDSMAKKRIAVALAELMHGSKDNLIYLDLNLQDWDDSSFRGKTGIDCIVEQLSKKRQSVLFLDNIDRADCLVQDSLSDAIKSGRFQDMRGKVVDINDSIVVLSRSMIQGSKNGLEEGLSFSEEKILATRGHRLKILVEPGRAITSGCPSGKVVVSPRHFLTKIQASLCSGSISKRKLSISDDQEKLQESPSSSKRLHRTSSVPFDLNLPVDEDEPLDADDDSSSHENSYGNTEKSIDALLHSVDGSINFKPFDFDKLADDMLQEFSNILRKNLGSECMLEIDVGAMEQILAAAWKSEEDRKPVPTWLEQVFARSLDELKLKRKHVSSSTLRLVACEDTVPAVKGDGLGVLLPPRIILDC
Kind of assay: pull-down; GST pull-down with HisTrx-D53 and GST-IPA1, both purified from bacteria; D53 detected by anti-D53. As to conditions: both partners purified.

B1: GST-IPA1 (natural protein, rice (Oryza sativa L.), UniProt Q7EXZ2 1-417, looked up)
chain: MEMASGGGAAAAAGGGVGGSGGGGGGGDEHRQLHGLKFGKKIYFEDAAAAAGGGGTGSGSGSASAAPPSSSSKAAGGGRGGGGKNKGKGVAAAAPPPPPPPPRCQVEGCGADLSGIKNYYCRHKVCFMHSKAPRVVVAGLEQRFCQQCSRFHLLPEFDQGKRSCRRRLAGHNERRRRPQTPLASRYGRLAASVGEHRRFRSFTLDFSYPRVPSSVRNAWPAIQPGDRISGGIQWHRNVAPHGHSSAVAGYGANTYSGQGSSSSGPPVFAGPNLPPGGCLAGVGAATDSSCALSLLSTQPWDTTTHSAAASHNQAAAMSTTTSFDGNPVAPSAMAGSYMAPSPWTGSRGHEGGGRSVAHQLPHEVSLDEVHPGPSHHAHFSGELELALQGNGPAPAPRIDPGSGSTFDQTSNTMDWSL
notes: Ideal Plant Architecture 1 (IPA1, SPL14), rice; full-length CDS in pGEX-6p-1; source: E. coli (pGEX-6p-1), purified
Turning to B1, the binding result is on record as “binds”.
